Assays:
[1] = target: T1, GLP-1 receptor in rat hypothalamic membrane preparations (rat, UniProt P32301 22-463); test: competition with [125I]GLP-1 on rat hypothalamic membranes, radioligand displacement
T1 construct: whole, on cells; Native receptor in a rat hypothalamic membrane preparation, not intact cells and not a recombinant construct; also called GLP-receptor; GLP-IR
T1 sequence (looked up): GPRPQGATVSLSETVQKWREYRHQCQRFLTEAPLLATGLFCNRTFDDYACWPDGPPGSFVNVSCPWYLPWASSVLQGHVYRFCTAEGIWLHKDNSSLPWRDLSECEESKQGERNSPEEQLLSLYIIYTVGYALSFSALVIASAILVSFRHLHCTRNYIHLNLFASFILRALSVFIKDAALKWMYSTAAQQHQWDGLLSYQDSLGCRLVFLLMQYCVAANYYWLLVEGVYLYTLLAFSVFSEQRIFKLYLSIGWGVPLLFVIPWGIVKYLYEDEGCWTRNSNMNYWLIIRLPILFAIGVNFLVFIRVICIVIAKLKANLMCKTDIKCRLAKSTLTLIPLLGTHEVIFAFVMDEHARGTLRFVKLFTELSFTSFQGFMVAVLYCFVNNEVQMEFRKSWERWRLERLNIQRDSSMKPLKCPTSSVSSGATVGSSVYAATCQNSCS
Procedure: (§1) Membranes were incubated at room temperature for 90 min. Bound and free radioactivity were separated by centrifugation (2 min, 4° C.). Pelleted membranes were washed with assay buffer (0.5 ml, ice-cold), and the membranes were centrifuged as described above. The supernatant was removed, and the radioactivity in the pellet was counted using a γ-counter. […] All curves were constructed with points in triplicate. IC₅₀ values were calculated using the Prism 3 program (GraphPad Software, Inc., San Diego, Calif.).

[2] = target: T1, GLP-1 receptor in rat hypothalamic …; test: competition with [125I]GLP-1 (100 pM) on rat hypothalamic membranes, radioligand displacement
Procedure: as §1

- affinity relative to GLP-1 [1]: ~2 orders of magnitude weaker than GLP-1
- IC50 [2]: 8.2 nM
B1: human oxyntomodulin (OXM) (peptide)
peptide: HSQGTFTSDYSKYLDSRRAQDFVQWLMNTKRNKNNIA
notes: Bought from IAF BioChem Pharma
